Experimental data from patent US20140148501, “DNA APTAMERS FOR PROMOTING REMYELINATION” (MAYO FOUNDATION FOR MEDICAL EDUCATION AND RESEARCH, published 2014).

Columns and labels:
[1] = biological target: T1, Proteolipid protein PLP (12.5 kDa band) (Mus musculus, UniProt P60202 P60202:2-277); assay: southwestern blot; conditions: tags: none; from crude SJL mouse CNS myelin, SDS-PAGE separated and blotted to PVDF; label: 5'-fluorescein
T1 sequence: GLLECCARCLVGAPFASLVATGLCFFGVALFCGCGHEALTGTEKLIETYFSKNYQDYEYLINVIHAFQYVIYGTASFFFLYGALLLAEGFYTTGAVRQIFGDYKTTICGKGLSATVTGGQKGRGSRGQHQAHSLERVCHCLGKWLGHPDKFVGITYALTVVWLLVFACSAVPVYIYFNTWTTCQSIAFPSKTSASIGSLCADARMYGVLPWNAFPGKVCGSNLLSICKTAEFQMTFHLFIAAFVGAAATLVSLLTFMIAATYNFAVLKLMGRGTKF
Procedure: (§1) To promote intramolecular folding, aptamer stock solutions (5 μM) in PBS were heated to 90° C., MgCl₂ was added to a final concentration of 1 mM, and solutions were allowed to cool room temperature. Myelin stock was diluted in PBS and sonicated on ice. Fluorescent folded aptamers were added to different amounts of myelin suspension and incubated at 37° C. for 3 hours. Insoluble material with bound aptamers was recovered by centrifugation for 30 seconds in a microcentrifuge. The pellet was washed with 100 μL PBS and again recovered by centrifugation. After phenol extraction and ethanol precipitation, fluorescent aptamers were quantitated in black plastic 96-well plates using a Typhoon Fluorescent Imaging system (GE Healthcare Biosciences; Piscataway, N.J.). For Southwestern blotting, 15 μg crude myelin protein was separated in each lane of a 10% Bis-Tris SDS polyacrylamide gel in 2-(N-morpholino)ethanesulfonic acid (MES) buffer. After electrophoresis, duplicate lanes were either stained with Coomassie blue dye or transferred to polyvinylidene fluoride (PVDF) membrane by electroblotting. Western blotting was performed by standard methods using antibodies with the indicated specificities. For southwestern blots, membranes were blocked for 30 minutes at 37° C. in tris-buffered saline and TWEEN® 20 (TBST) buffer containing with 1% bovine serum albumin (BSA), 10% non-fat dry milk, 2 mg/mL sonicated and heat-denatured salmon testis DNA, and TWEEN® 20 detergent. Folded fluorescent aptamers (5 μM final concentration) were then added in PBS containing 1 mM MgCl₂ and incubated with PVDF membranes for 14 hours, followed by washing in TBST buffer and then in 0.5× tris/borate/EDTA (TBE) buffer. Fluorescein fluorescence was then detected on membranes using the Typhoon Fluorescent Imaging system. Tryptic peptide mass fingerprinting was performed.
(§2) The specificity of anti-myelin DNA aptamer 3064 and controls 3060 and 3202 was analyzed by assessing the binding of fluorescent aptamers to crude myelin protein suspension using centrifugal sedimentation to recover bound aptamers (FIG. 5A).

[2] = biological target: T2, Myelin oligodendrocyte glycoprotein MOG (23.8 kDa band) (Mus musculus, UniProt Q61885 Q61885:29-246); assay: southwestern blot; conditions: tags: none; from crude SJL mouse CNS myelin, SDS-PAGE separated and blotted to PVDF; label: 5'-fluorescein
T2 sequence: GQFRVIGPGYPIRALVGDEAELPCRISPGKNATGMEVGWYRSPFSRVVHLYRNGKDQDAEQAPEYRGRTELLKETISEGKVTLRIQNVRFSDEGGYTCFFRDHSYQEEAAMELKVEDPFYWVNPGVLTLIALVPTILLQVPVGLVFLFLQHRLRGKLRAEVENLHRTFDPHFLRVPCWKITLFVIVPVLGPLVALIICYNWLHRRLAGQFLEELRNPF
Procedure: as §1, §2

[3] = biological target: T3, Myelin basic protein 18.5 kDa isoform (Mus musculus, UniProt P04370-5 P04370-5:2-169); assay: southwestern blot; conditions: tags: none; from crude SJL mouse CNS myelin, SDS-PAGE separated and blotted to PVDF; label: 5'-fluorescein
T3 sequence (P04370 other isoform, or with tags, fused parts or gaps): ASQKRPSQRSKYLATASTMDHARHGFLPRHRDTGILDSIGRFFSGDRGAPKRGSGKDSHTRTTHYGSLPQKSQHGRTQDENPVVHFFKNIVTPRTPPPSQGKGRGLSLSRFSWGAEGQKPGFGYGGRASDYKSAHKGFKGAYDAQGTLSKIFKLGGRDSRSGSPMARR
Procedure: as §1, §2

[4] = biological target: T4, Myelin basic protein isoforms containing exon 2-encoded sequence (17 kDa and 21.5 kDa) (Mus musculus, UniProt P04370-4 P04370-4:2-195); assay: southwestern blot; conditions: tags: none; from crude SJL mouse CNS myelin, SDS-PAGE separated and blotted to PVDF; label: 5'-fluorescein
T4 sequence (P04370 other isoform, or with tags, fused parts or gaps): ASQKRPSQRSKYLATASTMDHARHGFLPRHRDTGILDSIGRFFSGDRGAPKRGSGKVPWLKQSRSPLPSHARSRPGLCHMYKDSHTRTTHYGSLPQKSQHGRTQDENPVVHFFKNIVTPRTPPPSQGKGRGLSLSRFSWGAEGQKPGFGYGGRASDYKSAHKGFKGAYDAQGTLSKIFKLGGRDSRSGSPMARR
Procedure: as §1, §2

[5] = biological target: T1, Proteolipid protein PLP (12.5 kDa band); assay: southwestern blot; control selected for chelated Ni; conditions: tags: none; from crude SJL mouse CNS myelin, SDS-PAGE separated and blotted to PVDF; label: 5'-fluorescein; putative intramolecular G4
Procedure: (§3) After electrophoresis, duplicate lanes were either stained with Coomassie blue dye or transferred to polyvinylidene fluoride (PVDF) membrane by electroblotting. Western blotting was performed by standard methods using antibodies with the indicated specificities. For southwestern blots, membranes were blocked for 30 minutes at 37° C. in tris-buffered saline and TWEEN® 20 (TBST) buffer containing with 1% bovine serum albumin (BSA), 10% non-fat dry milk, 2 mg/mL sonicated and heat-denatured salmon testis DNA, and TWEEN® 20 detergent. Folded fluorescent aptamers (5 μM final concentration) were then added in PBS containing 1 mM MgCl₂ and incubated with PVDF membranes for 14 hours, followed by washing in TBST buffer and then in 0.5× tris/borate/EDTA (TBE) buffer. Fluorescein fluorescence was then detected on membranes using the Typhoon Fluorescent Imaging system. Tryptic peptide mass fingerprinting was performed.
(§4) The specificity of anti-myelin DNA aptamer 3064 and controls 3060 and 3202 was analyzed by assessing the binding of fluorescent aptamers to crude myelin protein suspension using centrifugal sedimentation to recover bound aptamers (FIG. 5A). […] To further assess specificity, crude myelin proteins were separated by SDS-polyacrylamide gel electrophoresis and stained with Coomassie dye (myelin; FIG. 5B, left lane), or blotted to polyvinylidene (PVDF) membrane and probed with antibodies against myelin basic protein (MBP), proteolipid protein (PLP), or MOG in western blots (FIG. 5B, lanes 2-4), or probed with fluorescent aptamers 3202, 3060 or 3064 in southwestern blots (FIG. 5B, lanes 5-7). […] In particular, control aptamer 3060 and myelin-specific aptamer 3064 both bound to three myelin proteins with apparent molecular weights of 12.5 kDa, 18.5 kDa, and 23.8 kDa. Based on western analysis and mass spectrometry of tryptic peptides, these proteins were PLP, the 18.5 kDa isoform of MBP, and MOG, respectively.

[6] = biological target: T2, Myelin oligodendrocyte glycoprotein MOG …; assay: as above; conditions: tags: none; from crude SJL mouse CNS myelin, SDS-PAGE separated and blotted to PVDF; label: 5'-fluorescein; putative intramolecular G4
Procedure: as §3, §4

[7] = biological target: T3, Myelin basic protein 18.5 kDa isoform; assay: as above; conditions: tags: none; from crude SJL mouse CNS myelin, SDS-PAGE separated and blotted to PVDF; label: 5'-fluorescein; putative intramolecular G4
Procedure: as §3, §4

[8] = biological target: T4, Myelin basic protein isoforms …; assay: southwestern blot; 17 and 21.5 kDa bands bound only by 3064; conditions: tags: none; from crude SJL mouse CNS myelin, SDS-PAGE separated and blotted to PVDF; label: 5'-fluorescein; putative intramolecular G4
Procedure: (§5) To promote intramolecular folding, aptamer stock solutions (5 μM) in PBS were heated to 90° C., MgCl₂ was added to a final concentration of 1 mM, and solutions were allowed to cool room temperature. Myelin stock was diluted in PBS and sonicated on ice. Fluorescent folded aptamers were added to different amounts of myelin suspension and incubated at 37° C. for 3 hours. Insoluble material with bound aptamers was recovered by centrifugation for 30 seconds in a microcentrifuge. The pellet was washed with 100 μL PBS and again recovered by centrifugation. After phenol extraction and ethanol precipitation, fluorescent aptamers were quantitated in black plastic 96-well plates using a Typhoon Fluorescent Imaging system (GE Healthcare Biosciences; Piscataway, N.J.). For Southwestern blotting, 15 μg crude myelin protein was separated in each lane of a 10% Bis-Tris SDS polyacrylamide gel in 2-(N-morpholino)ethanesulfonic acid (MES) buffer. […] Fluorescein fluorescence was then detected on membranes using the Typhoon Fluorescent Imaging system. […]
as §2

[9] = biological target: T4, Myelin basic protein isoforms …; assay: southwestern blot; unique to 3064; 5 uM aptamer, PBS, 1 mM MgCl2, 14 h; conditions: tags: none; from crude SJL mouse CNS myelin, SDS-PAGE separated and blotted to PVDF; label: 5'-fluorescein; putative intramolecular G4
Procedure: as §5, §2

[10] = biological target: T1, Proteolipid protein PLP (12.5 kDa band); assay: southwestern blot; 5 uM aptamer, PBS, 1 mM MgCl2; conditions: tags: none; from crude SJL mouse CNS myelin, SDS-PAGE separated and blotted to PVDF; label: 5'-fluorescein; putative intramolecular G4
Procedure: as §1, §2

[11] = biological target: T2, Myelin oligodendrocyte glycoprotein MOG …; assay: southwestern blot; 5 uM aptamer, PBS, 1 mM MgCl2; conditions: tags: none; from crude SJL mouse CNS myelin, SDS-PAGE separated and blotted to PVDF; label: 5'-fluorescein; putative intramolecular G4
Procedure: as §1, §2

[12] = biological target: T3, Myelin basic protein 18.5 kDa isoform; assay: southwestern blot; 5 uM aptamer, PBS, 1 mM MgCl2; conditions: tags: none; from crude SJL mouse CNS myelin, SDS-PAGE separated and blotted to PVDF; label: 5'-fluorescein; putative intramolecular G4
Procedure: as §1, §2

TTTTTTTTTTTTTTTTTTTTTTTTTTTTTTTTTTTTTTTT (ssDNA) [3202 (dT40)]
binding result [1]: no binding
binding result [2]: no binding
binding result [3]: no binding
binding result [4]: no binding

AAAGAACAAAAAGGATAAAGGGGGAGACGGGGGGAACATGGGG (ssDNA) [3060]
binding result [5]: binds
binding result [6]: binds
binding result [7]: binds
binding result [8]: no binding

GGGTCGGCGGGTGGGGTGGGAGGTGGTCTTGTCTCTGGGT (ssDNA) [3064]
binding result [9]: binds
binding result [10]: binds
binding result [11]: binds
binding result [12]: binds
